*1 amine or outer side, *2 acyl side, *3 side chain or, on linkers, in order; H or OH if unused. Where no end group is shown, it is not given here. Side-chain parts run from the residue outwards. [ ]: non-standard residue; d: D form. The star is where a group is joined. γGlu = O=C(O)[C@H](CCC(=O)[*:2])N[*:1]; Palmitoyl = CCCCCCCCCCCCCCCC(=O)*
How the values were obtained:
human GLP-1 receptor = human GLP-1 receptor (human, UniProt P43220 24-463); assay: cell-based or functional assay
human glucagon receptor = human glucagon receptor (human, UniProt P47871 26-477); assay: cell-based or functional assay
Chain of human glucagon receptor (P47871 26-477): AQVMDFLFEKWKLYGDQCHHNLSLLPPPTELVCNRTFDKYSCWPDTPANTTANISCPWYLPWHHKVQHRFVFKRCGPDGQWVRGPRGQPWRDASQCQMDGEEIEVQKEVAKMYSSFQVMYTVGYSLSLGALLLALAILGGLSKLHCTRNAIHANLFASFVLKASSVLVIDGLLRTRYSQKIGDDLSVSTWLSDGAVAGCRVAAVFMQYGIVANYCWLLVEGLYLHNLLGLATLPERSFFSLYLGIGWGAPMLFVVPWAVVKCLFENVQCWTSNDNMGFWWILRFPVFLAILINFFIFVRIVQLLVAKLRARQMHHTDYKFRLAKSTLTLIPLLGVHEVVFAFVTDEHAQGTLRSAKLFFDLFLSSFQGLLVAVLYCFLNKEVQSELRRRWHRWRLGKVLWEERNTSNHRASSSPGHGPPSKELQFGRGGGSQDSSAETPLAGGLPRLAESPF

Row | Binder | EC50 hGLP-1R (cAMP formation) (human GLP-1 receptor) | EC50 hGlucagonR (cAMP formation) (human glucagon receptor)
1 | H[dS]QGTFTSDLSKQMESRRAQDFIEWLKNTGPSSGAPPPSK([γGlu-Palmitoyl])-NH2 (N-terminus assumed; SMILES CCCCCCCCCCCCCCCC(=O)N[C@@H](CCC(=O)NCCCC[C@H](NC(=O)[C@H](CO)NC(=O)[C@@H]1CCCN1C(=O)[C@@H]1CCCN1C(=O)[C@@H]1CCCN1C(=O)[C@H](C)NC(=O)CNC(=O)[C@H](CO)NC(=O)[C@H](CO)NC(=O)[C@@H]1CCCN1C(=O)CNC(=O)[C@@H](NC(=O)[C@H](CC(N)=O)NC(=O)[C@H](CCCCN)NC(=O)[C@H](CC(C)C)NC(=O)[C@H](Cc1c[nH]c2ccccc12)NC(=O)[C@H](CCC(=O)O)NC(=O)[C@@H](NC(=O)[C@H](Cc1ccccc1)NC(=O)[C@H](CC(=O)O)NC(=O)[C@H](CCC(N)=O)NC(=O)[C@H](C)NC(=O)[C@H](CCCNC(=N)N)NC(=O)[C@H](CCCNC(=N)N)NC(=O)[C@H](CO)NC(=O)[C@H](CCC(=O)O)NC(=O)[C@H](CCSC)NC(=O)[C@H](CCC(N)=O)NC(=O)[C@H](CCCCN)NC(=O)[C@H](CO)NC(=O)[C@H](CC(C)C)NC(=O)[C@H](CC(=O)O)NC(=O)[C@H](CO)NC(=O)[C@@H](NC(=O)[C@H](Cc1ccccc1)NC(=O)[C@@H](NC(=O)CNC(=O)[C@H](CCC(N)=O)NC(=O)[C@@H](CO)NC(=O)[C@@H](N)Cc1c[nH]cn1)[C@@H](C)O)[C@@H](C)O)[C@@H](C)CC)[C@@H](C)O)C(N)=O)C(=O)O) [SEQ ID NO: (74)] | 39.6 pM | 35.5 pM
2 | H[dS]QGTFTSDLSKQMESRRAQDFIEWLKRGGPSSGAPPPSK([γGlu-Palmitoyl])-NH2 (N-terminus assumed; SMILES CCCCCCCCCCCCCCCC(=O)N[C@@H](CCC(=O)NCCCC[C@H](NC(=O)[C@H](CO)NC(=O)[C@@H]1CCCN1C(=O)[C@@H]1CCCN1C(=O)[C@@H]1CCCN1C(=O)[C@H](C)NC(=O)CNC(=O)[C@H](CO)NC(=O)[C@H](CO)NC(=O)[C@@H]1CCCN1C(=O)CNC(=O)CNC(=O)[C@H](CCCNC(=N)N)NC(=O)[C@H](CCCCN)NC(=O)[C@H](CC(C)C)NC(=O)[C@H](Cc1c[nH]c2ccccc12)NC(=O)[C@H](CCC(=O)O)NC(=O)[C@@H](NC(=O)[C@H](Cc1ccccc1)NC(=O)[C@H](CC(=O)O)NC(=O)[C@H](CCC(N)=O)NC(=O)[C@H](C)NC(=O)[C@H](CCCNC(=N)N)NC(=O)[C@H](CCCNC(=N)N)NC(=O)[C@H](CO)NC(=O)[C@H](CCC(=O)O)NC(=O)[C@H](CCSC)NC(=O)[C@H](CCC(N)=O)NC(=O)[C@H](CCCCN)NC(=O)[C@H](CO)NC(=O)[C@H](CC(C)C)NC(=O)[C@H](CC(=O)O)NC(=O)[C@H](CO)NC(=O)[C@@H](NC(=O)[C@H](Cc1ccccc1)NC(=O)[C@@H](NC(=O)CNC(=O)[C@H](CCC(N)=O)NC(=O)[C@@H](CO)NC(=O)[C@@H](N)Cc1c[nH]cn1)[C@@H](C)O)[C@@H](C)O)[C@@H](C)CC)C(N)=O)C(=O)O) [SEQ ID NO: (75)] | 4.6 pM | 64.1 pM

— US20130336893A1 (Sanofi, published 2013)
